Laboratory results as given in the supplement of paper PMC5998384.

Experiments:
HeLa Kyoto [1] = experiment: solubility in G1/S (NP-40 vs SDS abundance) (log2 ratio); higher = more soluble; settings: cell cycle stage: G1/S
HeLa Kyoto [2] = experiment: solubility change mitosis vs G1/S (difference of NP-40 vs SDS log2 ratios) (log2 ratio difference); higher = more soluble in mitosis
HeLa Kyoto [3] = experiment: melting temperature (median over replicates), in situ; higher = more thermally stable
HeLa Kyoto [4] = experiment: thermal stability score vs G1/S (z-score of summed log2 fold changes over temperatures); higher = more thermally stable than in G1/S
[5] = cell cycle stage: early G1 (4.5 h after nocodazole release)
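Wherever melting temperature (median over replicates), in situ is given: HeLa Kyoto cells synchronized by double thymidine or nocodazole block, proteins quantified by TMT10plex mass spectrometry, three independent biological replicates.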
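Wherever solubility change mitosis vs G1/S (difference of NP-40 vs SDS log2 ratios) is given: synchronized HeLa Kyoto cells (double thymidine block for G1/S, nocodazole release for mitosis), protein amounts in NP-40 versus SDS lysates quantified by mass spectrometry, three biological replicates.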
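Wherever solubility in G1/S (NP-40 vs SDS abundance) is given: HeLa Kyoto cells arrested at G1/S by double thymidine block, proteins quantified by TMT10plex mass spectrometry in mild NP-40 versus SDS extracts, three biological replicates.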
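Wherever thermal stability score vs G1/S (z-score of summed log2 fold changes over temperatures) is given: synchronized HeLa Kyoto cells, proteins quantified by TMT10plex mass spectrometry, three biological replicates, mitosis taken 0.5 h after nocodazole release, G1/S directly after double thymidine block.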

Substance	solubility in G1/S (log2) (HeLa Kyoto [1])	solubility change mitosis (log2) (HeLa Kyoto [2])	melting temperature (HeLa Kyoto [3]; cell cycle stage: G1/S)	melting temperature (HeLa Kyoto [3]; cell cycle stage: mitosis)	thermal stability score (HeLa Kyoto [4]; [5])	thermal stability score (HeLa Kyoto [4]; cell cycle stage: mitosis)
MTDQENNNNISSNPFAALFGSLADAKQFAAIQKEQLKQQSDELPASPDDSDNSVSESLDEFDYSVAEISRSFRSQQEICEQLNINHMIQRIFLITLDNSDPSLKSGNGIPSRCVYLEEMAVELEDQDWLDMSNVEQALFARLLLQDPGNHLINMTSSTTLNLSADRDAGERHIFCYLYSCFQRAKEEITKVPENLLPFAVQCRNLTVSNTRTVLLTPEIYVDQNIHEQLVDLMLEAIQGAHFEDVTEFLEEVIEALILDEEVRTFPEVMIPVFDILLGRIKDLELCQILLYAYLDILLYFTRQKDMAKVFVEYIQPKDPTNGQMYQKTLLGVILSISCLLKTPGVVENHGYFLNPSRSSPQEIKVQEANIHQFMAQFHEKIYQMLKNLLQLSPETKHCILSWLGNCLHANAGRTKIWANQMPEIFFQMYASDAFFLNLGAALLKLCQPFCKPRSSRLLTFNPTYCALKELNDEERKIKNVHMRGLDKETCLIPAVQEPKFPQNYNLVTENLALTEYTLYLGFHRLHDQMVKINQNLHRLQVAWRDAQQSSSPAADNLREQFERLMTIYLSTKTAMTEPQMLQNCLNLQVSMAVLLVQLAIGNEGSQPIELTFPLPDGYSSLAYVPEFFADNLGDFLIFLRRFADDILETSADSLEHVLHFITIFTGSIERMKNPHLRAKLAEVLEAVMPHLDQTPNPLVSSVFHRKRVFCNFQYAPQLAEALIKVFVDIEFTGDPHQFEQKFNYRRPMYPILRYMWGTDTYRESIKDLADYASKNLEAMNPPLFLRFLNLLMNDAIFLLDEAIQYLSKIKIQQIEKDRGEWDSLTPEARREKEAGLQMFGQLARFHNIMSNETIGTLAFLTSEIKSLFVHPFLAERIISMLNYFLQHLVGPKMGALKVKDFSEFDFKPQQLVSDICTIYLNLGDEENFCATVPKDGRSYSPTLFAQTVRVLKKINKPGNMIMAFSNLAERIKSLADLQQQEEETYADACDEFLDPIMSTLMCDPVVLPSSRVTVDRSTIARHLLSDQTDPFNRSPLTMDQIRPNTELKEKIQRWLAERKQQKEQLE [UBE4A]	-0.123	-0.0832	49.4 °C	50 °C	-0.166	0.519
MLGARAWLGRVLLLPRAGAGLAASRRGSSSRDKDRSATVSSSVPMPAGGKGSHPSSTPQRVPNRLIHEKSPYLLQHAYNPVDWYPWGQEAFDKARKENKPIFLSVGYSTCHWCHMMEEESFQNEEIGRLLSEDFVSVKVDREERPDVDKVYMTFVQATSSGGGWPMNVWLTPNLQPFVGGTYFPPEDGLTRVGFRTVLLRIREQWKQNKNTLLENSQRVTTALLARSEISVGDRQLPPSAATVNNRCFQQLDEGYDEEYGGFAEAPKFPTPVILSFLFSYWLSHRLTQDGSRAQQMALHTLKMMANGGIRDHVGQGFHRYSTDRQWHVPHFEKMLYDQAQLAVAYSQAFQLSGDEFYSDVAKGILQYVARSLSHRSGGFYSAEDADSPPERGQRPKEGAYYVWTVKEVQQLLPEPVLGATEPLTSGQLLMKHYGLTEAGNISPSQDPKGELQGQNVLTVRYSLELTAARFGLDVEAVRTLLNSGLEKLFQARKHRPKPHLDSKMLAAWNGLMVSGYAVTGAVLGQDRLINYATNGAKFLKRHMFDVASGRLMRTCYTGPGGTVEHSNPPCWGFLEDYAFVVRGLLDLYEASQESAWLEWALRLQDTQDKLFWDSQGGGYFCSEAELGAGLPLRLKDDQDGAEPSANSVSAHNLLRLHGFTGHKDWMDKCVCLLTAFSERMRRVPVALPEMVRALSAQQQTLKQIVICGDRQAKDTKALVQCVHSVYIPNKVLILADGDPSSFLSRQLPFLSTLRRLEDQATAYVCENQACSVPITDPCELRKLLHP [SPATA20]	0.267	-0.304	51.6 °C	52.6 °C	0.594	0.85
MSESFDCAKCNESLYGRKYIQTDSGPYCVPCYDNTFANTCAECQQLIGHDSRELFYEDRHFHEGCFRCCRCQRSLADEPFTCQDSELLCNDCYCSAFSSQCSACGETVMPGSRKLEYGGQTWHEHCFLCSGCEQPLGSRSFVPDKGAHYCVPCYENKFAPRCARCSKTLTQGGVTYRDQPWHRECLVCTGCQTPLAGQQFTSRDEDPYCVACFGELFAPKCSSCKRPIVGLGGGKYVSFEDRHWHHNCFSCARCSTSLVGQGFVPDGDQVLCQGCSQAGP [FHL3]	-0.281	-0.184	57.7 °C	56.8 °C	0.504	-1.78
MPHFTVVPVDGPRRGDYDNLEGLSWVDYGERAELDDSDGHGNHRESSPFLSPLEASRGIDYYDRNLALFEEELDIRPKVSSLLGKLVSYTNLTQGAKEHEEAESGEGTRRRAAEAPSMGTLMGVYLPCLQNIFGVILFLRLTWMVGTAGVLQALLIVLICCCCTLLTAISMSAIATNGVVPAGGSYFMISRSLGPEFGGAVGLCFYLGTTFAAAMYILGAIEILLTYIAPPAAIFYPSGAHDTSNATLNNMRVYGTIFLTFMTLVVFVGVKYVNKFASLFLACVIISILSIYAGGIKSIFDPPVFPVCMLGNRTLSRDQFDICAKTAVVDNETVATQLWSFFCHSPNLTTDSCDPYFMLNNVTEIPGIPGAAAGVLQENLWSAYLEKGDIVEKHGLPSADAPSLKESLPLYVVADIATSFTVLVGIFFPSVTGIMAGSNRSGDLRDAQKSIPVGTILAIITTSLVYFSSVVLFGACIEGVVLRDKYGDGVSRNLVVGTLAWPSPWVIVIGSFFSTCGAGLQSLTGAPRLLQAIAKDNIIPFLRVFGHGKVNGEPTWALLLTALIAELGILIASLDMVAPILSMFFLMCYLFVNLACAVQTLLRTPNWRPRFKYYHWALSFLGMSLCLALMFVSSWYYALVAMLIAGMIYKYIEYQGAEKEWGDGIRGLSLSAARYALLRLEEGPPHTKNWRPQLLVLLKLDEDLHVKYPRLLTFASQLKAGKGLTIVGSVIQGSFLESYGEAQAAEQTIKNMMEIEKVKGFCQVVVASKVREGLAHLIQSCGLGGMRHNSVVLGWPYGWRQSEDPRAWKTFIDTVRCTTAAHLALLVPKNIAFYPSNHERYLEGHIDVWWIVHDGGMLMLLPFLLRQHKVWRKCRMRIFTVAQMDDNSIQMKKDLAVFLYHLRLEAEVEVVEMHNSDISAYTYERTLMMEQRSQMLRQMRLTKTEREREAQLVKDRHSALRLESLYSDEEDESAVGADKIQMTWTRDKYMTETWDPSHAPDNFRELVHIKPDQSNVRRMHTAVKLNEVIVTRSHDARLVLLNMPGPPRNSEGDENYMEFLEVLTEGLERVLLVRGGGREVITIYS [SLC12A4]	0.0648	-0.148	54.3 °C	54.2 °C	0.505	0.0338
ABCC1	0.0337	-0.0751	54.5 °C	53.7 °C	-0.781	-0.316
MAACEGRRSGALGSSQSDFLTPPVGGAPWAVATTVVMYPPPPPPPHRDFISVTLSFGENYDNSKSWRRRSCWRKWKQLSRLQRNMILFLLAFLLFCGLLFYINLADHWKALAFRLEEEQKMRPEIAGLKPANPPVLPAPQKADTDPENLPEISSQKTQRHIQRGPPHLQIRPPSQDLKDGTQEEATKRQEAPVDPRPEGDPQRTVISWRGAVIEPEQGTELPSRRAEVPTKPPLPPARTQGTPVHLNYRQKGVIDVFLHAWKGYRKFAWGHDELKPVSRSFSEWFGLGLTLIDALDTMWILGLRKEFEEARKWVSKKLHFEKDVDVNLFESTIRILGGLLSAYHLSGDSLFLRKAEDFGNRLMPAFRTPSKIPYSDVNIGTGVAHPPRWTSDSTVAEVTSIQLEFRELSRLTGDKKFQEAVEKVTQHIHGLSGKKDGLVPMFINTHSGLFTHLGVFTLGARADSYYEYLLKQWIQGGKQETQLLEDYVEAIEGVRTHLLRHSEPSKLTFVGELAHGRFSAKMDHLVCFLPGTLALGVYHGLPASHMELAQELMETCYQMNRQMETGLSPEIVHFNLYPQPGRRDVEVKPADRHNLLRPETVESLFYLYRVTGDRKYQDWGWEILQSFSRFTRVPSGGYSSINNVQDPQKPEPRDKMESFFLGETLKYLFLLFSDDPNLLSLDAYVFNTEAHPLPIWTPA [MAN1B1]	0.19	-0.189	51.6 °C	52.1 °C	0.594	0.346
MAANMYRVGDYVYFENSSSNPYLIRRIEELNKTANGNVEAKVVCFYRRRDISSTLIALADKHATLSVCYKAGPGADNGEEGEIEEEMENPEMVDLPEKLKHQLRHRELFLSRQLESLPATHIRGKCSVTLLNETESLKSYLEREDFFFYSLVYDPQQKTLLADKGEIRVGNRYQADITDLLKEGEEDGRDQSRLETQVWEAHNPLTDKQIDQFLVVARSVGTFARALDCSSSVRQPSLHMSAAAASRDITLFHAMDTLHKNIYDISKAISALVPQGGPVLCRDEMEEWSASEANLFEEALEKYGKDFTDIQQDFLPWKSLTSIIEYYYMWKTTDRYVQQKRLKAAEAESKLKQVYIPNYNKPNPNQISVNNVKAGVVNGTGAPGQSPGAGRACESCYTTQSYQWYSWGPPNMQCRLCASCWTYWKKYGGLKMPTRLDGERPGPNRSNMSPHGLPARSSGSPKFAMKTRQAFYLHTTKLTRIARRLCREILRPWHAARHPYLPINSAAIKAECTARLPEASQSPLVLKQAVRKPLEAVLRYLETHPRPPKPDPVKSVSSVLSSLTPAKVAPVINNGSPTILGKRSYEQHNGVDGNMKKRLLMPSRGLANHGQARHMGPSRNLLLNGKSYPTKVRLIRGGSLPPVKRRRMNWIDAPDDVFYMATEETRKIRKLLSSSETKRAARRPYKPIALRQSQALPPRPPPPAPVNDEPIVIED [MTA1]	-0.0863	-0.00553	49.1 °C	50.3 °C	1.08	2.79
MAATASAGVPATVSEKQEFYQLLKNLINPSCMVRRQAEEIYENIPGLCKTTFLLDAVRNRRAGYEVRQMAAALLRRLLSSGFEEVYPNLPADVQRDVKIELILAVKLETHASMRKKLCDIFAVLARNLIDEDGTNHWPEGLKFLIDSIYSKNVVLWEVALHVFWHFPGIFGTQERHDLDIIKRLLDQCIQDQEHPAIRTLSARAAAAFVLANENNIALFKDFADLLPGILQAVNDSCYQDDDSVLESLVEIADTVPKYLGPYLEDTLQLSLKLCGDSRLSNLQRQLALEVIVTLSETATPMLKKHTNIIAQAVPHILAMMVDLQDDEDWVNADEMEEDDFDSNAVAAESALDRLACGLGGKVVLPMTKEHIMQMLQSPDWKYRHAGLMALSAIGEGCHQQMESILDETVNSVLLFLQDPHPRVRAAACTTLGQMATDFAPNFQKKFHETVIAALLRTMENQGNQRVQSHAASALIIFIEDCPKSLLVLYVDSMVKNLHSVLVIKLQELIRNGTKLALEQLVTTIASVADTIEEKFVPYYDIFMPSLKHIVELAVQKELKLLRGKTIECISHIGLAVGKEKFMQDASNVMQLLLKTQSDLNNMEDDDPQTSYMVSAWARMCKILGKDFQQYLPLVIEPLIKTASAKPDVALLDTQDVENMSDDDGWQFVNLGDQQSFGIKTSGLEAKATACQMLVYYAKELREGFVEYTEQVVKLMVPLLKFYFHDNVRVAAAESMPFLLECARIRGPEYLAQMWQFICDPLIKAIGTEPDTDVLSEIMNSFAKSIEVMGDGCLNDEHLEELGGILKAKLEGHFKNQELRQVKRQEENYDQQVEMSLQDEDECDVYILTKVSDILHSLFSTYKEKILPWFEQLLPLIVNLICSSRPWPDRQWGLCIFDDIIEHCSPTSFKYVEYFRWPMLLNMRDNNPEVRQAAAYGLGVMAQFGGDDYRSLCSEAVPLLVKVIKCANSKTKKNVIATENCISAIGKILKFKPNCVNVDEVLPHWLSWLPLHEDKEEAIQTLSFLCDLIESNHPVVIGPNNSNLPKIISIIAEGKINETINYEDPCAKRLANVVRQVQTSEDLWLECVSQLDDEQQEALQELLNFA [RANBP6]	-0.0197	-0.132	49.9 °C	51.5 °C	0.799	0.825
